How the values were obtained:
[1] = target: angiotensin I converting enzyme (ACE); test: cell-based or functional assay
[2] = target: angiotensin I converting enzyme (ACE); test: cell-based or functional assay; remark: listed apart in the source

Row | ACE inhibition (IC50 value), at-line ACE assay (cleavage of HHL) [1] [µM] | ACE inhibition (IC50 value), modified Matsui assay (cleavage of Hip-His-Leu) [1] [µM] | IC50 value in the Modified Matsui test (ACE inhibition) [2] [µM] | Binder
1 | 3.8 | 0.4 | 0.5 | MAP [tripeptide Methionine-Alanine-Proline (Met-Ala-Pro)]
2 | 7.1 | 2 | – | IPP [tripeptide IPP]
3 | 50 | 10 | – | ITP [tripeptide Isoleucine-Threonine-Proline (Ile-Thr-Pro)]

— US20090131331A1 (DSM IP ASSETS B V, published 2009)
